Measurements reported in the NTF2 design screens of Basanta et al. (2020).

Assay: protease stability score; higher = more stable; yeast display proteolysis, trypsin and chymotrypsin;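 further: log10 excess protease needed over predicted unfolded state with 0 meaning unfolded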

In order of rising protease stability score:
1. DEDANHRFKDQVRAIKTGDSKRVEELVDPNVHNHVGEWRVHGSTHWATLAKQVRDEMRVDLDIKSVENSGNKLNIDANVIIDHNGKPHRNQVNWNVNNHNGRIQEASAKKSN  -0.484
2. DEHAEHIATEWWKAIRTNNPERARELVDKDVKINVGDKRIHGREQVDREIKRLNNTSRQDYKSMHMTVKGDKVRVEMNKRQEDNGNPRSKNFEVVFDFHNGRIRHISVHETK  -0.381
3. DESELERAIEMLEQNDPEEARRQVDKNAHMQVGEKSWTGREDVQTALVKHNEHVDHVEVKSVTKRGDKAEVKARVEFNGHNLKANFIVEVHNGKIKHVRVEVTDEEQKKLMRELLQ  -0.363
4. DEDVKRMIEDFIEAEKKNNPRQLKKNADPEAEADVGDTKVHGMDHFAREVKKRMDQMRVSVDYKSITVDGNTIKAKARVSENHNGRPKHNTATLEFRAHNGRIKEIRHHEDK  -0.332
5. DEEDERRKVQDVAKAIKKGNEKELRKLADEDAKWRVGDTDLHGMERIQKDQATRRREVDNVEIKSVDVHNGRAHVTFVVNHNGKNVEVTNTADFKNGKVKNVQVDPSKVEELKK  -0.328
6. DEKVQDLVQKFVKWLAQGDHKKLADLLDPNARLHIGEFNVHGREQLREAVTRLQTRMHLSVNRVDASASNGKIKASAKFTVKHNGQPDKKHLNFSAVARGEKVKHMEASDDQ  -0.287
7. DERDLKTFLDILERNDEDKLQTMADENVELQVGDKTFHGREEFQKYVQHVRDQVDRVDVRDYRIDNGRASVRVIFDFNGKNLDVVMVFSVRNGRVKYFSIQYRDEEVKKMLEEIEG  -0.172
8. EEDVSNQVRHAFDLHRSNNPENLEEMFDKNARIRIGDKTIHGREQYSETAEQEIREQKVEYKSIDVKAKNGRVHIRIDFVSNVNGRPKRDSMQQTYEIHNGRISHASIESDS  -0.151
9. DESKEAHTLAKKYVELVKKGDQEKMKTMFDPNAKAHIGDKTYHGMTDFVETLVEQAKRVDHQSVDVKSVEVDGDHIDVEVTVKYTYNGQNRSNVERFIVRNHNGKWRVKEWHDK  -0.145
10. DEEAVKTLEHMFEAVRDGNPDEVKKQVDPNVKIEIGDKTYKGKDQWAQDVETKKDEMRFTYHSIEFKNEPNRVKISIDRTETHNGQPRRHHVDMEARVHNGVIVRMKAKESG  -0.124
11. DEEFEQNAKEWLTAIKENDPDQVRDLVDEDVRFNVGNKKVHGRERWKHLVETENKELRVEYESIDVKVNGDKAEFNATVTVEVNGKPAHFHVNMKMQAHNGRIKHVSQNMSHEDQEKFRK  -0.118
12. DEDAERHVTEMIHAYKHNNPEKVQTYMDKHVKIKVGDKTVKGREERAKELRKQKDQMRVDYDVHSMNVKGDKITARLRVDITVNGQPHTFEYHLIVKWTNGKIQELSVEFPEEDQKKQSR  -0.086
13. DKSANHQIEQLMRNINEGDKDKVREQMDPNVEVHVGDKEVHGREQYAREVRKEQEEMRVQFKVEHVKDRNGQAELRIQVQLDHNGKPETRVQHFVAVLDNGRVKSATAKIDK  -0.084
14. DEDNHRKAKKLIDAENTGDPTQVRKLADPNVHVEYGDEHVHGRDEIANELSKKAKEIRFRVDRLSFSVHNGTFSATQRMKENDNGRPEEFRVERSMELHNGKFVSIVQKKKS  -0.071
15. DKEEARKVLEELIKAVESGNPKDLKKYGKDGVKYRLGDREAHGPEAVYKQFEQIHRQGVELRFEDTKVEGDKVTTRVTYRNGDETYTVQIHAEVRGGKIDRVEADLSDKAKEVVKHG  -0.066
16. EEKLRERIKKFIDIMQTGNPEELEKQADEDAHFEIGEKRVHGMDDYAKEVQRELEDAQVRINVDSVRASNGRVEAHATMSETRNGQPRTAELKLEAQFHNGRIKHVRLHKHQ  -0.059
17. DDEERAHEIFKKYQHVLKSNDEDKDRELMDPNARLHIGDKQYHGREQVTKYWHEVLTHADHLEANLKDFRVKGESINIVYTFRQNEDGRDSQVIIEMVMKRQGDHYTVTDNTQK  -0.044
18. DEEAHKLMEEMMRAWKHGDSQRVADLVDPNARVKIGDKEVRGHEQIKELVHTLKTEMRIEYQSISAENHGNHVEVDARLSVESNGKPEQVDFKLRLVVQNGRIREISADYKP  -0.035
19. DEDVKELAEKYWKVVKEGNPHEVKKMVDPNVKFNVGEQHIHGREEVARQVSKENREIRINYQLRDVKVHNGRVDVTADLEEEHNGKPETNKVKAHFVFRNGRVQTLSQTNKK  -0.031
20. DEEALKNVKENLEDGDWDNLAKQADENATWVYGEKRVHGRRDLKKYAEAMKRQIDHWSIRSITTRGNKASVNAEVQVNGHRRSFHIEVEVENGHIKHWNMNFTDPTDERKVLKILE  -0.017
21. DDRLNEMARRFITLLTTGDPKEAHKYMDENARFQIGDERYHGMHEFERLLTERQKTSRVQINSLEVQHEPNRANIHADVENERNGQPRRFDVIIELHAHNGRIKEITYEYRQ  -0.009
22. DEKRVKELADKIFKDIINGNEEVVRKLGDPDVRYEYLDKKFRGEEAMIFIVQVVKRVGAEVKVERKEVRGDTAKADFRYRKGDTEVKTTAEVIYEGDKLKEARVHLTDEVKKVMTQG  -0.006
23. DEEKRREFAKFAMNVVQTGDPREFSKMADPNAKFDIGDKVFHGREKAVKHWEEYSQRVDHIQIQDVKFQGNEIHILAQDRHNGRDRSVVWVVTVHNGRAKYVSVDDN  0.027
24. DEDRYKKLMDKAFKLIMSGDEETMIKMLKPDVQYEYIDTKYEGEQVAKVIVRIVQKVGAEVRIKRKEHKGDKARADFDYHNGDQTVRTTAEVRYEGDKLKEARVKMTDEVKKVVQRG  0.028
25. EEEVAKHALEIMITGDPKQIKEMVDENAHVKVGNKEWHGREHMVHWAEQLHTQVDHREVRSMEVNGNTARVDLVVTINGHHIRFILRATIHNGRVQHLSLEVTNEEQQTQWERNLS  0.075
26. DERRLEEVARHIRRGDKKHLNRLADPNAQLQYGNQRYTGRERVQTFWRQMITRADHLRVQSVTIHNGRIDAKFEMRVNGNKVEYRLKVQIHNGKAQNVQVNYRDEEDEKRMEENLG  0.183
27. DEQRIADNLDERFRRVMENNNEDELRKLFDKDARVRVGDKTLHGREEVDKRLREILQRADHIDIKVNDIHVRGDKINIHFKIRIVVDGRDRFYTAVVRADVHNGEAKIVELKQS  0.213
28. DEHKEAEELARQLQRVARHNNPDQFAHMLDKDVKIDIGDKTVHGRENARNMMTELVKDYDSLDAKVDSFDVHNGTIDIKMTFSFNHNGKTTTTSVEFRARKHNGHVRIVYIKYG  0.234
29. DEDAQELAEQLWTAWETGDPRQIQNLMDPNVNFRYGDKTFQGREHLHRLIKDIQENIRIDYRHYSVDVKGDKASIKINIQLHHDGKPETKTNDLTIHFSGDRIQRVEQNDRQ  0.248
30. DDHEEASELIRDLNEAWKEGDPDRASKNFDPNARIEVGDRTFRGQEQVKRMADELKEKYDEFTVDIKRLSLHNGSITVNARVVYHNNGRRHDRTYVVILHKHNGRIKIKNMHEQ  0.331
31. DEDKEDRVRTWVEAQKTGDPDKAKENADPNVRVEYGDKTIHGMSEIVKHIKREKHESRRTIDSYSVSASGDHITVRIDMHVKHDGQPRRKDYTETIVIRNGKIRHIKRRDDK  0.36
32. DEEHQKEVLEHMTTNDPQFLRDLADEDVRVNVGDKEVKGREEFRRVLEHELRRIDRIQVKRVHVEGEKFKIDRKVTFDGKTLDYEVNFTIHNGRLKQMRVQARSEDLEEKMKELHG  0.36
33. DREERKKIAQTILKIFETGDHKKFKRQIDPNVEVVVGDRTYKGRTQATKAFNEIQEKVDEVDVKTVHYKGDHAIVDAVLVINGRRVTVYFHLTIHNGRVKSISMQFRDEEDERKFRG  0.367
34. DREQAERLIRIMENERTGDPDKVVEMVDPNAKFKVGNTTYKGREELRKEVETRQKKARFEMSIQDYSVHGDTASIRYTLVINVNGQPHESTFNLEARFHNGKVRELHVKFDEQRMRDIQS  0.49
35. DDDNVRKYVELMHEGDNEQLVRLADPNVRLQVGDKQYDGREDFEHHLRQIHTQADHFQVQDYHFEGDKAVMDVVMTVNGHQFRFKIHVEVRNGEVKQVQWDFTDPNQRDRFRNNLS  0.611
36. DRNHVKEIAKEILKAMETNDEKRMSELMDKNVRLVYGDTEVHGRERVLTTIKHELESIDHVNFHDMSVDGDKIHVVYHVQKNGDRRQVEVRYVISNGKIQEVQINTR  0.623
37. DEHNYTILQEIWEALKTNNKERFDELADPNARFQVGDKEFHGMETAARHLIRRHTEMRLDMKVDDYRLNGDHLSVDAKVRFRVNGQPNHYQMTLHAQIQGDKLKRMVWRIPESVLERIKS  0.66
38. DEETLHDVLRHLKHGDPDTIDRMADENAKAVIGNQEIHGREEISKIAKDLERKVDHQEVHKVEIDGDKATVTYRQNVNGRTVYMYVIVQNHDGHIKYVVIKARDEDEMRKWEENLS  0.742
39. DTQEKLKHWWKHVQENIKTGDEDRLHEMVDPNASVQVGDKELHGREKIATTYVELMSRVDHVRIQITELEVHGNDFDLTFNYEADVNGRKEHDHYRVVLQEHNGQLRLVQMSEG  0.747
40. DEEELQEMIHEFVKALETGNPDDIDKNADEDAKAVYGDKEVEGREQIKHQIKQLHDAIDHLEVKRVSFDNGRAHIHVEMTVNGERFTAKITVEAHNGKIKDVQFDPRLRNAYES  0.81
41. DEETQFKKLMETMKEQNKRGDPRKHEEYVDPNAKVRVGDQDLHGREDVRRVLQEWAERADHVDLKVESMSVHNGKQTAIMVIVLRYNGRNETRRVQVVFDKSNGTVRLVNLRNS  0.856
42. DSKQRAKEFVKEFQRVLQKGDPDQAEKMADKDVRINVGDKTYHGREEMWKMAQEWQRKYDEMSITVSRIQTRPGRIVANAKLKLDNNGTTDDTHLVIVVREHNGHYRAVHIRLG  0.992
43. DDENRKRAEEWLQAVQEGNEHQVMELADPNVRFVIGDKTLHGREQLSEWVKRVHDQMRFSVEIKHVRVHGDKVLITVRHTANVNGKPFDDTLIIKVVINNGKFQRIELRVDPEKLKHLKT  1.01
44. DEEERLRTILKLFEEALKHNDEDRLRKLADKDVRMRVGDKEYRGKEKFADFMRKLRTKADKVRIQIKQVNIQGNHNTMDITLVFNVNGNNNRFKVNFVFDIRGDSLKLKSATVK  1.32
45. DKTHAETVRKLVERGNWEELARMADKDAHVNYGNKSVHGRERVESLLKRFSSRVDHVDLKDVDVQGDHVHMRYVAVFDGRRVDVSAVIFVDNGRIKSIHYRATDEEVKRRMDELLD  1.33
46. DERWKEKFEQMVRDQKTGNEDEVAKYFDKNAEIKVGDQRFHGREQLREHLREQRRQMRVDIDIKHVDVKGNHITVEYEFRENHNGRPTRRKATLRAEYHNGKIQRMRIDKSG  1.33
47. DEENMHKLQEIIRTNDETKFNEMMDPNVEIEVGNKTYHGREEAIKFQRRVNQHVDKIQVDYVEVQGDSLRADYVVQVNGQNVRVDLEIRVEDGRAKEIRLNFRNEEEHKMYEKWLS  1.34
48. DEDKLTRVEDFLRLQEQNNEDELLKQMDPNATQRYGNKHVHGSSEVKRFLHRLHREMRIRVEMKSVEVHGDEVVMKADFSKTFNGRPETLTATVVFKVHNGRIQKIIFEERK  1.41
49. DRERRHEFATEVVENLKQGDWKRLVEQADKDVTADIGDTKYKGRETFSKWAQQFVRRVDRVEIVDMRLDGDEVRINMDVKHNGQTRRSVFIARWHNGRIKHFRIETG  1.62
50. DEEKQEQVLRDQNTNDPDQMERLLDENVKVDVGDEEIHGRETVVKFLRHFIDRIDHVDVRELSVRNGRFHIEVVYTFDGRRMRYILHMEVKDGHVKYQQIQATSDEDKKRLDEMES  2.38
